The text below walks through data of paper PMC3785238 (Cell, 2013).

Non-standard residues stand in square brackets, D forms with d. No end group written: not given here. pT = C[C@@H](OP(=O)(O)O)[C@H](N)C(=O)O; pS = N[C@@H](COP(=O)(O)O)C(=O)O

To fix the notation:
T1: Homer1c, full-length, recombinant (UniProt Q9Z214 1-366)
T1 sequence (looked up): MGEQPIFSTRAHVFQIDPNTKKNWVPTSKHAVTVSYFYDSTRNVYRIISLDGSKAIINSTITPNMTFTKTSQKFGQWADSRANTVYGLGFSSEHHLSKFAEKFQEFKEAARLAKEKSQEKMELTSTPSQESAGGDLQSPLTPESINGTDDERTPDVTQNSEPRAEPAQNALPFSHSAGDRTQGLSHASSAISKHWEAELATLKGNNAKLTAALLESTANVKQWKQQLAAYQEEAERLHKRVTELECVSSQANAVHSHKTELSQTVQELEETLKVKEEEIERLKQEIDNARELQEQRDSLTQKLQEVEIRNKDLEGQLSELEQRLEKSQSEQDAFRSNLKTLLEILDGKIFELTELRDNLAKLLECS

B1: mGluR5 peptide spanning the Homer/Pin1 binding site, bacterially expressed, phosphorylated at T1123 and S1126 (peptide)
chain: KELVAL[pT]PP[pS]PFRD

The target in test [1] is Homer1a, full length, recombinant. Nature of the test: ITC.
The target is the same in test [2]. Nature of the test: ITC + NMR titration.
The target of test [3] is T1, Homer1c, full-length, recombinant. Nature of the test: ITC.
The target in test [4] is B1.

For the molecule KELVALTPP[pS]PFRD [mGluR5 peptide spanning the Homer/Pin1 binding site, bacterially expressed, phosphorylated at S1126], the Kd in test [1] was found to be 1.56 ± 0.16 µM; in test [3] it was 1.91 ± 0.19 µM. Also, the “Kd, calc cis” value in test [2] is 0.67 µM. The “Kd, calc trans” value in test [2] is 2.19 µM.

Regarding B1, in test [1], the Kd came to 0.47 ± 0.1 µM. Moreover, in test [2], the “Kd, calc cis” value is 0.16 µM and the “Kd, calc trans” value is 0.76 µM.

Regarding EKLPPGWEKRMSRSSGRVYYFNHITNASQWERPSG (domain or fragment, UniProt Q13526 5-39, looked up) [WW domain of Pin1], in test [4], the Kd was found to be 10.7 ± 0.2 µM.
